The values that follow come from article PMC12098658.

Assay [1] has as its target GFP-JMY CT (aa821-983) (Mus musculus) (UniProt Q9QXM1). The experiment in a line: co-IP; L929 lysate with GFP-JMY CT, continuous 2 µM Ca2+ for 2 h, compared with continuous EGTA; anti-GFP immunoprecipitation, quantitative immunoblot. On the technique in general: A western blot detects proteins with antibodies after separation by electrophoresis.
The target is the same in assay [2]. Put plainly: co-IP; as a9 but lysate/antibody mixture with 2 µM Ca2+; actin CoIP/GFP IP ratio as percent difference from the Ca2+-free (1 mM EGTA) condition.
The target in assay [3] is GFP-JMY WH2#1 (aa841-883) (Mus musculus) (UniProt Q9QXM1). The assay is described as above.
GFP-JMY WH2#1 (aa841-883) (Mus musculus), sequence (Q9QXM1 841-883): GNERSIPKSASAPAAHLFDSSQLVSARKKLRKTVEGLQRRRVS

GFP-JMY CT (aa821-983) (Mus musculus), sequence (Q9QXM1 821-983): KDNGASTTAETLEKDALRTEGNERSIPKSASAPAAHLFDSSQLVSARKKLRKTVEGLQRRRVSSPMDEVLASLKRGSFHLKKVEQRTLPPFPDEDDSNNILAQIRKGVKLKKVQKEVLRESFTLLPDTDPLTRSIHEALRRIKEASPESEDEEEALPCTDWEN

For “endogenous actin from L929 cells (from UniProt P60710 1-375) (natural protein)”, the percent change of coimmunoprecipitated actin with 2 µM Ca2+ against the Ca2+-free condition is -80% in assay [1], less than -80% in assay [2] and less than -80% in assay [3].
